# Numbered stars: 1 amine (or outer) side, 2 acyl side, 3 side chain; on linkers, the order of the positions; unused ones are H or OH. Square brackets hold non-standard residues; d marks the D form. Ends that are not written are not given here. * marks the point of attachment. X2 = 4‑amino‑1‑((3-fluoro-4-methylbenzyl)glycyl)piperidine‑4‑carboxylic acid, Cc1ccc(CN(CC(=O)N2CCC(N[*:1])(C(=O)[*:2])CC2)[*:3])cc1F; X6 = 3‑(2-(2-(3-(p-tolyl)propanamido)ethoxy)ethoxy)propanoyl, Cc1ccc(CCC(=O)NCCOCCOCCC(=O)*)cc1; DOTA = O=C(O)CN1CCN(CC(=O)O)CCN(CC(=O)*)CCN(CC(=O)O)CC1; Api(1-amidino) = N=C(N)N1CCC(N)(C(=O)O)CC1; HO(CH2CH2O)2CH2CH2CO = O=C(CCOCCOCCO)*; Phe(3-F) = N[C@@H](Cc1cccc(F)c1)C(=O)O; d2Nal = N[C@H](Cc1ccc2ccccc2c1)C(=O)O; d4Pal = N[C@H](Cc1ccncc1)C(=O)O; Cha = N[C@@H](CC1CCCCC1)C(=O)O; Octanoyl = CCCCCCCC(=O)*; Ahx = NCCCCCC(=O)O; azaGly = NNC(=O)O; Sar = CNCC(=O)O
# B1: Compound 23 (peptide)
# peptide: {DOTA}-[dY][d4Pal]NTF[azaGly]L[X2]W-NH2
# SMILES: Cc1ccc(CNCC(=O)N2CCC(NC(=O)[C@H](CC(C)C)NC(=O)NNC(=O)[C@H](Cc3ccccc3)NC(=O)[C@@H](NC(=O)[C@H](CC(N)=O)NC(=O)[C@@H](Cc3ccncc3)NC(=O)[C@@H](Cc3ccc(O)cc3)NC(=O)CN3CCN(CC(=O)O)CCN(CC(=O)O)CCN(CC(=O)O)CC3)[C@@H](C)O)(C(=O)N[C@@H](Cc3c[nH]c4ccccc34)C(N)=O)CC2)cc1F
# B2: Compound 354 (peptide)
# peptide: Octanoyl-[dY][dK](DOTA)NTF[azaGly]L[4‑amino‑1‑carbamimidoylpiperidine‑4‑carboxylic acid(Sarcosine)]W-NH2
# B3: Compound 338 (peptide)
# peptide: X6-[dY][dK](DOTA)NTF[azaGly]L[Api(1-amidino)]W-NH2
# SMILES: Cc1ccc(CCC(=O)NCCOCCOCCC(=O)N[C@H](Cc2ccc(O)cc2)C(=O)N[C@H](CCCCNC(=O)CN2CCN(CC(=O)O)CCN(CC(=O)O)CCN(CC(=O)O)CC2)C(=O)N[C@@H](CC(N)=O)C(=O)N[C@H](C(=O)N[C@@H](Cc2ccccc2)C(=O)NNC(=O)N[C@@H](CC(C)C)C(=O)NC2(C(=O)N[C@@H](Cc3c[nH]c4ccccc34)C(N)=O)CCN(C(=N)N)CC2)[C@@H](C)O)cc1
# B4: Compound 383 (peptide)
# peptide: {DOTA-Ahx}-[dY][dW]NTF[azaGly]L[X2][dW]-NH2
# SMILES: Cc1ccc(CNCC(=O)N2CCC(NC(=O)[C@H](CC(C)C)NC(=O)NNC(=O)[C@H](Cc3ccccc3)NC(=O)[C@@H](NC(=O)[C@H](CC(N)=O)NC(=O)[C@@H](Cc3c[nH]c4ccccc34)NC(=O)[C@@H](Cc3ccc(O)cc3)NC(=O)CCCCCNC(=O)CN3CCN(CC(=O)O)CCN(CC(=O)O)CCN(CC(=O)O)CC3)[C@@H](C)O)(C(=O)N[C@H](Cc3c[nH]c4ccccc34)C(N)=O)CC2)cc1F
# B5: Compound 381 (peptide)
# peptide: Octanoyl-[dY]K(DOTA)NTF[azaGly]L[X2]W-NH2
# SMILES: CCCCCCCC(=O)N[C@H](Cc1ccc(O)cc1)C(=O)N[C@@H](CCCCNC(=O)CN1CCN(CC(=O)O)CCN(CC(=O)O)CCN(CC(=O)O)CC1)C(=O)N[C@@H](CC(N)=O)C(=O)N[C@H](C(=O)N[C@@H](Cc1ccccc1)C(=O)NNC(=O)N[C@@H](CC(C)C)C(=O)NC1(C(=O)N[C@@H](Cc2c[nH]c3ccccc23)C(N)=O)CCN(C(=O)CNCc2ccc(C)c(F)c2)CC1)[C@@H](C)O
# B6: Compound 387 (peptide)
# peptide: X6-[dY]K(DOTA)NT[Cha][azaGly]L[4‑amino‑1‑carbamimidoylpiperidine‑4‑carboxylic acid(Sarcosine)]W-NH2
# B7: Compound 380 (peptide)
# peptide: Ac-[dY]K(DOTA)NTF[azaGly]L[X2]W-NH2
# SMILES: CC(=O)N[C@H](Cc1ccc(O)cc1)C(=O)N[C@@H](CCCCNC(=O)CN1CCN(CC(=O)O)CCN(CC(=O)O)CCN(CC(=O)O)CC1)C(=O)N[C@@H](CC(N)=O)C(=O)N[C@H](C(=O)N[C@@H](Cc1ccccc1)C(=O)NNC(=O)N[C@@H](CC(C)C)C(=O)NC1(C(=O)N[C@@H](Cc2c[nH]c3ccccc23)C(N)=O)CCN(C(=O)CNCc2ccc(C)c(F)c2)CC1)[C@@H](C)O
# B8: Compound 24 (peptide)
# peptide: {DOTA-2‑(4-aminopiperidin-1-yl)acetic acid}-[dY]ENT[Phe(3-F)][azaGly]L[X2]W-NH2
# B9: Compound 359 (peptide)
# peptide: {1‑(3-fluoro-4-methylphenyl)‑4‑oxo‑8,11‑dioxa‑2,5‑diazatetradecan‑14‑oyl}-[dY]K(DOTA)NTF[azaGly]L[4‑amino‑1‑carbamimidoylpiperidine‑4‑carboxylic acid(Sarcosine)][dW]-NH2
# B10: Compound 368 (peptide)
# peptide: {DOTA-NH‑PEG2‑propanoyl}-[dY][d4Pal]NTF[azaGly]L[X2]W-NH2
# B11: Compound 365 (peptide)
# peptide: {DOTA}-G[dY][d2Nal]NTF[azaGly]L[X2]W-NH2
# SMILES: Cc1ccc(CNCC(=O)N2CCC(NC(=O)[C@H](CC(C)C)NC(=O)NNC(=O)[C@H](Cc3ccccc3)NC(=O)[C@@H](NC(=O)[C@H](CC(N)=O)NC(=O)[C@@H](Cc3ccc4ccccc4c3)NC(=O)[C@@H](Cc3ccc(O)cc3)NC(=O)CNC(=O)CN3CCN(CC(=O)O)CCN(CC(=O)O)CCN(CC(=O)O)CC3)[C@@H](C)O)(C(=O)N[C@@H](Cc3c[nH]c4ccccc34)C(N)=O)CC2)cc1F
# B12: Compound 366 (peptide)
# peptide: {DOTA-Ahx}-[dY][dW]NTF[azaGly]L[X2]Y-NH2
# SMILES: Cc1ccc(CNCC(=O)N2CCC(NC(=O)[C@H](CC(C)C)NC(=O)NNC(=O)[C@H](Cc3ccccc3)NC(=O)[C@@H](NC(=O)[C@H](CC(N)=O)NC(=O)[C@@H](Cc3c[nH]c4ccccc34)NC(=O)[C@@H](Cc3ccc(O)cc3)NC(=O)CCCCCNC(=O)CN3CCN(CC(=O)O)CCN(CC(=O)O)CCN(CC(=O)O)CC3)[C@@H](C)O)(C(=O)N[C@@H](Cc3ccc(O)cc3)C(N)=O)CC2)cc1F
# B13: Compound 20 (peptide)
# peptide: {DOTA-Ahx}-[dY]PNTF[azaGly]L[X2]W-NH2
# SMILES: Cc1ccc(CNCC(=O)N2CCC(NC(=O)[C@H](CC(C)C)NC(=O)NNC(=O)[C@H](Cc3ccccc3)NC(=O)[C@@H](NC(=O)[C@H](CC(N)=O)NC(=O)[C@@H]3CCCN3C(=O)[C@@H](Cc3ccc(O)cc3)NC(=O)CCCCCNC(=O)CN3CCN(CC(=O)O)CCN(CC(=O)O)CCN(CC(=O)O)CC3)[C@@H](C)O)(C(=O)N[C@@H](Cc3c[nH]c4ccccc34)C(N)=O)CC2)cc1F
# B14: Compound 382 (peptide)
# peptide: {DOTA-NH‑PEG2‑propanoyl}-[dY][dW]NTF[azaGly]L[X2]W-NH2
# B15: Compound 358 (peptide)
# peptide: X6-[dY][dK](DOTA)NT[Cha][azaGly]L[4‑amino‑1‑carbamimidoylpiperidine‑4‑carboxylic acid(Sarcosine)][dW]-NH2
# B16: Compound 356 (peptide)
# peptide: X6-[dY]K(DOTA)NT[Cha][azaGly]L[4‑amino‑1‑carbamimidoylpiperidine‑4‑carboxylic acid(Sarcosine)][dW]-NH2
# B17: Compound 388 (peptide)
# peptide: X6-[dY][dK](DOTA)NT[Cha][azaGly]L[4‑amino‑1‑carbamimidoylpiperidine‑4‑carboxylic acid(Sarcosine)]W-NH2
# B18: Compound 384 (peptide)
# peptide: [dY]K(DOTA)NTF[azaGly]L[4‑amino‑1‑carbamimidoylpiperidine‑4‑carboxylic acid(Sarcosine)]W-NH2
# modifications: not fully specified (N-terminus)
# B19: Compound 22 (peptide)
# peptide: {DOTA-Ahx}-FF[azaGly]L[X2]W-NH2
# modifications: not fully specified; numbers in words are those of the source; also: places azaglycine at site 3
# B20: Compound 360 (peptide)
# peptide: [N‑(3-fluoro-4-methylbenzyl)glycine][dY]K(DOTA)NTF[azaGly]L[4‑amino‑1‑carbamimidoylpiperidine‑4‑carboxylic acid(Sarcosine)][dW]-NH2
# B21: Compound 353 (peptide)
# peptide: Octanoyl-[dY][dK](DOTA)NTF[azaGly]L[4‑amino‑1‑carbamimidoylpiperidine‑4‑carboxylic acid(Sarcosine)][dW]-NH2
# B22: Compound 25 (peptide)
# peptide: {DOTA-4‑(aminomethyl)cyclohexanecarboxylic acid}-F[azaGly]L[X2]W-NH2
# B23: Compound 17 (peptide)
# peptide: {DOTA}-[Sar][Sar]F[azaGly]L[X2]W-NH2
# SMILES: Cc1ccc(CNCC(=O)N2CCC(NC(=O)[C@H](CC(C)C)NC(=O)NNC(=O)[C@H](Cc3ccccc3)NC(=O)CN(C)C(=O)CN(C)C(=O)CN3CCN(CC(=O)O)CCN(CC(=O)O)CCN(CC(=O)O)CC3)(C(=O)N[C@@H](Cc3c[nH]c4ccccc34)C(N)=O)CC2)cc1F
# B24: Compound 357 (peptide)
# peptide: X6-[dY]K(DOTA)NT[Cha][azaGly]L[4‑amino‑1‑carbamimidoylpiperidine‑4‑carboxylic acid(Sarcosine)]W-NH2
# B25: Compound 379 (peptide)
# peptide: {HO(CH2CH2O)2CH2CH2CO}-[dY]K(DOTA)NTF[azaGly]L[X2]W-NH2
# SMILES: Cc1ccc(CNCC(=O)N2CCC(NC(=O)[C@H](CC(C)C)NC(=O)NNC(=O)[C@H](Cc3ccccc3)NC(=O)[C@@H](NC(=O)[C@H](CC(N)=O)NC(=O)[C@H](CCCCNC(=O)CN3CCN(CC(=O)O)CCN(CC(=O)O)CCN(CC(=O)O)CC3)NC(=O)[C@@H](Cc3ccc(O)cc3)NC(=O)CCOCCOCCO)[C@@H](C)O)(C(=O)N[C@@H](Cc3c[nH]c4ccccc34)C(N)=O)CC2)cc1F
# B26: Compound 355 (peptide)
# peptide: Octanoyl-[dY][dK](DOTA)NT[Cha][azaGly]L[4‑amino‑1‑carbamimidoylpiperidine‑4‑carboxylic acid(Sarcosine)][dW]-NH2
# Biological target: human kisspeptin receptor (KISS1R) (human), Q969F8
# Sequence (Q969F8 whole entry): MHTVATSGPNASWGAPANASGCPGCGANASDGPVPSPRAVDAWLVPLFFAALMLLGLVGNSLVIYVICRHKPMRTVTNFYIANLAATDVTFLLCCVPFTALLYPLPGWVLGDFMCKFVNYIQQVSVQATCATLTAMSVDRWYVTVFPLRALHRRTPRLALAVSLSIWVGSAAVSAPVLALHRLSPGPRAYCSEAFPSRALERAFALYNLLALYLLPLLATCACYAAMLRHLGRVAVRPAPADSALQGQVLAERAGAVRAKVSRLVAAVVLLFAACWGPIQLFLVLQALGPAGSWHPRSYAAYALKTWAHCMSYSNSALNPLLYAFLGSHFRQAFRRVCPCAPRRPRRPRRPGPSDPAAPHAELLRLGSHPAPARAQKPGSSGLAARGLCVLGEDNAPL
# Experiment: radioligand competition, hKISS1R membranes; legend: A is <10 nM
row,Ki [nM],Binder
1,< 10,B1
2,< 10,B2
3,< 10,B3
4,< 10,B4
5,< 10,B5
6,< 10,B6
7,< 10,B7
8,< 10,B8
9,< 10,B9
10,< 10,B10
11,< 10,B11
12,< 10,B12
13,< 10,B13
14,< 10,B14
15,< 10,B15
16,< 10,B16
17,< 10,B17
18,< 10,B18
19,< 10,B19
20,< 10,B20
21,< 10,B21
22,< 10,B22
23,< 10,B23
24,< 10,B24
25,< 10,B25
26,< 10,B26
